Source: patent US20260049143A1 (KYMAB, published 2026)
Values belong to the binder of their own block, whether it stands above or below them.

Legend:
[1] = target: T1, human ICOS-mFc (Chimerigen) (human, UniProt Q9Y6W8 21-140, limits assumed); experiment: DELFIA ELISA, coated human ICOS-mFc, N=1
T1 construct: Bought fusion; also called hICOS; recombinant human ICOS protein; not shown: mouse Fc
T1 sequence: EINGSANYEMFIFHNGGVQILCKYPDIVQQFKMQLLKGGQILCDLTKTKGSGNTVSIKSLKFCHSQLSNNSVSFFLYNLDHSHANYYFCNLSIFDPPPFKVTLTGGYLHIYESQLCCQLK
Protocol: (§1) Recombinant ICOS proteins, human ICOS-mFc or mouse ICOS-mFc (Chimerigen) were diluted in 1×PBS and added to Black Hi-bind plates (Griener) at 1 μg/ml, 50 μl/well. Recombinant PD-L1 proteins, human PD-L1-Flag-His or mouse-His were diluted in 1×PBS and added to Black Hi-bind plates (Griener) at 4 μg/ml, 50 μl/well. The plates were left overnight at 4° C. The next day plates were washed 3× with 300 μl/well of 1×PBS+0.1% Tween and blocked with 200 μl/well of 1×PBS+1% BSA blocking buffer for 1 hr at RT on a plate shaker. Plates were washed 3× with 300 μl/well of 1×PBS+0.1% Tween.
(§2) However, human-PD-L1 mAb² antibodies were diluted in 1×PBS+0.1% BSA buffer and diluted 1 in 2 from a starting working concentration of 0.066 μM over an 11 point titration. Titrated antibodies were added to the plates, 50 μl/well and left to incubate for 1 hr at R.T on a plate shaker. Plates were washed 3× with 300 μl/well of 1×PBS+0.1% Tween.
(§3) DELFIA® Eu-labelled Anti-human IgG(Perkin-Elmer) was diluted 1:500 in DELFIA Assay buffer (Perkin-Elmer) and added to the assay plate (50 μl/well), left to incubate for 1 hr at RT on a plate shaker. […] After incubation, assay was read on Envision plate reader (Perkin Elmer), Time-resolved fluorescence (TRF) was measured at 615 nm.

[2] = target: T2, mouse ICOS-mFc (Chimerigen) (mouse, UniProt Q9WVS0 21-141, limits assumed); experiment: DELFIA ELISA, coated mouse ICOS-mFc, N=1
T2 construct: Bought fusion; also called mICOS; recombinant mouse ICOS protein; not shown: mouse Fc
T2 sequence: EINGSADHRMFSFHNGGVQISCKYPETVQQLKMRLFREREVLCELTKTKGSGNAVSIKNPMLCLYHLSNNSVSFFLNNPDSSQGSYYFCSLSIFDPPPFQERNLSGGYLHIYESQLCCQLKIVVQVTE
Protocol: as §1, §2, §3

[3] = target: T1, human ICOS-mFc (Chimerigen); experiment: DELFIA ELISA, coated human ICOS-mFc, mean
Protocol: as §1, §2, §3

[4] = target: T3, mouse ICOS expressed on CHO cells (mouse, UniProt Q9WVS0 21-141); experiment: flow cytometry, CHO mouse ICOS cells, anti-human IgG AF647, mean
T3 construct: the cell-expressed form may differ; also called mICOS; CHO mouse ICOS
T3 sequence: T2 sequence
Protocol: CHO-S cells transfected with either human ICOS or mouse ICOS were resuspended in FACS buffer (PBS+1% w/v BSA+0.1% w/v sodium azide) and transferred to a 96-well V-bottom plate (Greiner) at a density of 1×10⁵ cells per well. mAb and mAb² were titrated in FACS buffer, 1 in 3 dilution across 11 points from a starting working concentration of 400 nM. Plates were centrifuged at 300×g for 3 minutes, supernatant discarded and 50 μL mAb or mAb² solution were added to cells and incubated at 4° C. for 1 hour. Cells were washed with 150 μL of PBS and centrifuged at 300×g for 3 minutes, supernatant was discarded and cell pellet resuspended in 150 μL PBS added. This wash step was repeated twice. […] Cells were incubated for 1 hour at 4° C. in the dark. Cells were washed with 150 μL of PBS and centrifuged at 300 g for 3 minutes, supernatant was discarded and cell pellet resuspended in 150 μL PBS added. This wash step was repeated twice. Cells were fixed with 25 μL 4% v/v paraformaldehyde, incubated for 20 minutes at 4° C., cells were pelleted by centrifugation at 300×g and the supernatant discarded. Cells were washed with 150 μL of PBS and centrifuged at 300 g for 3 minutes, supernatant was discarded and cell pellet resuspended in 150 μL PBS added. This wash step was repeated. Pelleted cells were resuspended in 110 μL 1×PBS.

[5] = target: T2, mouse ICOS-mFc (Chimerigen); experiment: HTRF neutralisation of mouse B7-H2 binding to mouse ICOS-mFc, n1
Protocol: (§4) 5 μl of human ICOS-mFc (Chimerigen) at 20 nM (5 nM final) or 5 μl of mouse ICOS-mFc (Chimerigen) at 4 nM (1 nM final) were added to relevant assay wells. Plate was incubated for 1 hour (hr) at room temperature (RT).
(§5) After incubation, assay was read on Envision plate reader (Perkin Elmer) using a standard HTRF protocol. 620 nm and 665 nm channel values were exported to Microsoft Excel and % Delta-F and % Neutralisation calculations performed. Titration curves and IC50 values [M] were plotted using Graphpad (Prism). IC50 values were calculated by first transforming the data using equation X=Log(X). The transformed data was then fitted using nonlinear regression, using fitting algorithm, log (inhibitor) vs. response-variable slope (four parameters).

[6] = target: T1, human ICOS-mFc (Chimerigen); experiment: HTRF neutralisation of human B7-H2 binding to human ICOS-mFc, average
Protocol: as §4, §5

[7] = target: T4, Biotinylated human ICOS protein (human, UniProt Q9Y6W8 21-140, limits assumed, biotinylated); experiment: avidity SPR (ProteOn), biotinylated hICOS on NLC chip; calculated on-rate
T4 sequence: T1 sequence
Protocol: Biotinylated human ICOS protein diluted at 7.5 μg/mL in running buffer (1×HBS-EP+Buffer Technova, cat. No. H8022) was captured on a NLC sensor chip (Bio-Rad, cat No 1765021). The surface was then blocked using biocytin (Sigma Aldrich, cat No B1758) at 1 mg/mL.
The assay was carried out at 25° C.
The buffer injection (i.e. 0 nM) was used to double reference the sensorgrams. The analysis was carried out using the equilibrium model inherent to the ProteOn's analysis software for each mAb² construct.

[8] = target: T2, mouse ICOS-mFc (Chimerigen); experiment: HTRF neutralisation of mouse B7-H2 binding to mouse ICOS-mFc, n3
Protocol: as §4, §5

[9] = target: T2, mouse ICOS-mFc (Chimerigen); experiment: HTRF neutralisation of mouse B7-H2 binding to mouse ICOS-mFc, average
Protocol: as §4, §5

EC50 [1]: 0.51 nM
EC50 [2]: 0.327 nM
EC50 [3]: 0.43 nM
EC50 [4]: 10.6 nM
IC50 [5]: 0.087 nM
IC50 [6]: 0.56 nM
kon [7]: 275000 M⁻¹ s⁻¹
B1: STIM003_457 (bispecific antibody, V domains shown, not shown: a dimerising Fc or GST)
VH: EVQLVESGGGVVRPGGSLRLSCVASGVTFDDYGMSWVRQAPGKGLEWVSGINWNGGDTDYSDSVKGRFTISRDNAKNSLYLQMNSLRAEDTALYYCARDFYGSGSYYHVPFDYWGQGILVTVSS
VL: EIVLTQSPGTLSLSPGERATLSCRASQSVSRSYLAWYQQKRGQAPRLLIYGASSRATGIPDRFSGDGSGTDFTLSISRLEPEDFAVYYCHQYDMSPFTFGPGTKVDIK
notes: mAb^2 IgG1; also called ST1M003_457; STIM003_457 mAb^2

EC50 [2]: 23.6 nM
EC50 [3]: 12.6 nM
EC50 [4]: 5.21 nM
IC50 [5]: 3.39 nM
IC50 [8]: 6.32 nM
IC50 [6]: 1.6 nM
IC50 [9]: 5.07 nM
kon [7]: 37600 M⁻¹ s⁻¹
B2: STIM001_457 (bispecific antibody, V domains shown, not shown: a dimerising Fc or GST)
VH: QVQVVQSGAEVKKPGASVKVSCKASGYTFSTFGITWVRQAPGQGLEWMGWISAYNGDTNYAQNLQGRVIMTTDTSTSTAYMELRSLRSDDTAVYYCARSSGHYYYYGMDVWGQGTTVTVSS
VL: DIVMTQSPLSLPVTPGEPASISCRSSQSLLHSNEYNYLDWYLQKPGQSPQLLIFLGSNRASGVPDRFSGSGSGTDFTLKITRVEAEDVGIYYCMQSLQTPLTFGGGTKVEIK
notes: mAb^2 IgG1; also called STIM001_457 mAb^2
